Data as given in the array DNA melting data of Ke et al..

Assay: melting temperature; melt of duplexes
Settings: sodium 0.0675 M; strand 1 µM

| Substance | Tm [°C] |
| --- | --- |
| CGACGTGCAATATGTGCTG+CAGCACATTCTGCACGTCG (((((((((..((((((((+))))))))..))))))))) | 50.7 |
| CGACGTGCAATATGTGCTG+CAGCACATTGTGCACGTCG (((((((((..((((((((+))))))))..))))))))) | 49.1 |
| CGACGTGCAATATGTGCTG+CAGCACATTTAGCACGTCG ((((((((.(.((((((((+)))))))).).)))))))) | 50.8 |
| CGACGTGCACAATGTGCTG+CAGCACATAGAGCACGTCG ((((((((.(.((((((((+)))))))).).)))))))) | 48.4 |
| CGACGTGCACAATGTGCTG+CAGCACATAGGGCACGTCG ((((((((.(.((((((((+)))))))).).)))))))) | 53 |
| CGACGTGCACAATGTGCTG+CAGCACATCAAGCACGTCG ((((((((...((((((((+))))))))...)))))))) | 46.2 |
| CGACGTGCACAATGTGCTG+CAGCACATCCTGCACGTCG (((((((((..((((((((+))))))))..))))))))) | 47.1 |
| CGACGTGCACAATGTGCTG+CAGCACATCGCGCACGTCG ((((((((.(.((((((((+)))))))).).)))))))) | 48.5 |
| CGACGTGCACAATGTGCTG+CAGCACATCTAGCACGTCG ((((((((...((((((((+))))))))...)))))))) | 45.9 |
| CGACGTGCACAATGTGCTG+CAGCACATGCGGCACGTCG ((((((((...((((((((+))))))))...)))))))) | 46.6 |
| CGACGTGCACAATGTGCTG+CAGCACATGTAGCACGTCG ((((((((...((((((((+))))))))...)))))))) | 50.7 |
| CGACGTGCACAATGTGCTG+CAGCACATTAAGCACGTCG ((((((((..(((((((((+)))))))))..)))))))) | 49 |
| CGACGTGCACAATGTGCTG+CAGCACATTATGCACGTCG (((((((((.(((((((((+))))))))).))))))))) | 52.8 |
| CGACGTGCACAATGTGCTG+CAGCACATTCGGCACGTCG ((((((((..(((((((((+)))))))))..)))))))) | 49.7 |
| CGACGTGCACAATGTGCTG+CAGCACATTCTGCACGTCG (((((((((.(((((((((+))))))))).))))))))) | 51.7 |
| CGACGTGCACAATGTGCTG+CAGCACATTGAGCACGTCG ((((((((.((((((((((+)))))))))).)))))))) | 56.9 |
| CGACGTGCACCATGTGCTG+CAGCACATAAAGCACGTCG ((((((((...((((((((+))))))))...)))))))) | 45 |
| CGACGTGCACCATGTGCTG+CAGCACATAGCGCACGTCG ((((((((.(.((((((((+)))))))).).)))))))) | 46.1 |
| CGACGTGCACCATGTGCTG+CAGCACATAGGGCACGTCG ((((((((.(.((((((((+)))))))).).)))))))) | 51.5 |
| CGACGTGCACCATGTGCTG+CAGCACATCAGGCACGTCG ((((((((...((((((((+))))))))...)))))))) | 42.9 |
| CGACGTGCACCATGTGCTG+CAGCACATCATGCACGTCG (((((((((..((((((((+))))))))..))))))))) | 45.6 |
| CGACGTGCACCATGTGCTG+CAGCACATCCTGCACGTCG (((((((((..((((((((+))))))))..))))))))) | 44.7 |
| CGACGTGCACCATGTGCTG+CAGCACATCGAGCACGTCG ((((((((.(.((((((((+)))))))).).)))))))) | 45.7 |
| CGACGTGCACCATGTGCTG+CAGCACATCGGGCACGTCG ((((((((.(.((((((((+)))))))).).)))))))) | 49.4 |

| Substance | Tm [°C] |
| --- | --- |
| CGACGTGCACCATGTGCTG+CAGCACATCTCGCACGTCG ((((((((...((((((((+))))))))...)))))))) | 41.8 |
| CGACGTGCACCATGTGCTG+CAGCACATCTTGCACGTCG (((((((((..((((((((+))))))))..))))))))) | 45.7 |
| CGACGTGCACCATGTGCTG+CAGCACATGAGGCACGTCG ((((((((..(((((((((+)))))))))..)))))))) | 53.9 |
| CGACGTGCACCATGTGCTG+CAGCACATGATGCACGTCG (((((((((.(((((((((+))))))))).))))))))) | 56.5 |
| CGACGTGCACCATGTGCTG+CAGCACATGCGGCACGTCG ((((((((..(((((((((+)))))))))..)))))))) | 50.4 |
| CGACGTGCACCATGTGCTG+CAGCACATGCTGCACGTCG (((((((((.(((((((((+))))))))).))))))))) | 51.6 |
| CGACGTGCACCATGTGCTG+CAGCACATGGCGCACGTCG ((((((((.((((((((((+)))))))))).)))))))) | 59.2 |
| CGACGTGCACCATGTGCTG+CAGCACATGGGGCACGTCG ((((((((.((((((((((+)))))))))).)))))))) | 62.8 |
| CGACGTGCACCATGTGCTG+CAGCACATGGTGCACGTCG (((((((((((((((((((+))))))))))))))))))) | 65.2 |
| CGACGTGCACCATGTGCTG+CAGCACATGTAGCACGTCG ((((((((..(((((((((+)))))))))..)))))))) | 50.9 |
| CGACGTGCACCATGTGCTG+CAGCACATGTGGCACGTCG ((((((((..(((((((((+)))))))))..)))))))) | 53.4 |
| CGACGTGCACCATGTGCTG+CAGCACATGTTGCACGTCG (((((((((.(((((((((+))))))))).))))))))) | 55 |
| CGACGTGCACCATGTGCTG+CAGCACATTAAGCACGTCG ((((((((...((((((((+))))))))...)))))))) | 43.9 |
| CGACGTGCACCATGTGCTG+CAGCACATTACGCACGTCG ((((((((...((((((((+))))))))...)))))))) | 42.4 |
| CGACGTGCACCATGTGCTG+CAGCACATTCAGCACGTCG ((((((((...((((((((+))))))))...)))))))) | 42.6 |
| CGACGTGCACCATGTGCTG+CAGCACATTGGGCACGTCG ((((((((.(.((((((((+)))))))).).)))))))) | 52.5 |
| CGACGTGCACCATGTGCTG+CAGCACATTTGGCACGTCG ((((((((...((((((((+))))))))...)))))))) | 44.6 |
| CGACGTGCACGATGTGCTG+CAGCACATACCGCACGTCG ((((((((...((((((((+))))))))...)))))))) | 43.6 |
| CGACGTGCACGATGTGCTG+CAGCACATACGGCACGTCG ((((((((...((((((((+))))))))...)))))))) | 48.2 |
| CGACGTGCACGATGTGCTG+CAGCACATAGCGCACGTCG ((((((((.(.((((((((+)))))))).).)))))))) | 50.3 |
| CGACGTGCACGATGTGCTG+CAGCACATATCGCACGTCG ((((((((...((((((((+))))))))...)))))))) | 44.2 |
| CGACGTGCACGATGTGCTG+CAGCACATCATGCACGTCG (((((((((.(((((((((+))))))))).))))))))) | 55.3 |
| CGACGTGCACGATGTGCTG+CAGCACATCCCGCACGTCG ((((((((..(((((((((+)))))))))..)))))))) | 49.9 |
| CGACGTGCACGATGTGCTG+CAGCACATCTTGCACGTCG (((((((((.(((((((((+))))))))).))))))))) | 55.7 |

| Substance | Tm [°C] |
| --- | --- |
| CGACGTGCACGATGTGCTG+CAGCACATGAGGCACGTCG ((((((((...((((((((+))))))))...)))))))) | 48.4 |
| CGACGTGCACGATGTGCTG+CAGCACATGCCGCACGTCG ((((((((...((((((((+))))))))...)))))))) | 44.4 |
| CGACGTGCACGATGTGCTG+CAGCACATGGAGCACGTCG ((((((((.(.((((((((+)))))))).).)))))))) | 50.5 |
| CGACGTGCACGATGTGCTG+CAGCACATGGGGCACGTCG ((((((((.(.((((((((+)))))))).).)))))))) | 54.9 |
| CGACGTGCACGATGTGCTG+CAGCACATTACGCACGTCG ((((((((...((((((((+))))))))...)))))))) | 46 |
| CGACGTGCACGATGTGCTG+CAGCACATTCCGCACGTCG ((((((((...((((((((+))))))))...)))))))) | 44.5 |
| CGACGTGCACGATGTGCTG+CAGCACATTCTGCACGTCG (((((((((..((((((((+))))))))..))))))))) | 49.2 |
| CGACGTGCACTATGTGCTG+CAGCACATAACGCACGTCG ((((((((..(((((((((+)))))))))..)))))))) | 46.2 |
| CGACGTGCACTATGTGCTG+CAGCACATAATGCACGTCG (((((((((.(((((((((+))))))))).))))))))) | 51.2 |
| CGACGTGCACTATGTGCTG+CAGCACATAGCGCACGTCG ((((((((.((((((((((+)))))))))).)))))))) | 54.8 |
| CGACGTGCACTATGTGCTG+CAGCACATCCCGCACGTCG ((((((((...((((((((+))))))))...)))))))) | 42.6 |
| CGACGTGCACTATGTGCTG+CAGCACATCGGGCACGTCG ((((((((.(.((((((((+)))))))).).)))))))) | 51.1 |
| CGACGTGCACTATGTGCTG+CAGCACATCTAGCACGTCG ((((((((...((((((((+))))))))...)))))))) | 42.4 |
| CGACGTGCACTATGTGCTG+CAGCACATCTGGCACGTCG ((((((((...((((((((+))))))))...)))))))) | 44.2 |
| CGACGTGCACTATGTGCTG+CAGCACATCTTGCACGTCG (((((((((..((((((((+))))))))..))))))))) | 46.5 |
| CGACGTGCACTATGTGCTG+CAGCACATGAGGCACGTCG ((((((((...((((((((+))))))))...)))))))) | 47.5 |
| CGACGTGCACTATGTGCTG+CAGCACATGATGCACGTCG (((((((((..((((((((+))))))))..))))))))) | 48.8 |
| CGACGTGCACTATGTGCTG+CAGCACATGGCGCACGTCG ((((((((.(.((((((((+)))))))).).)))))))) | 50.3 |
| CGACGTGCACTATGTGCTG+CAGCACATGGTGCACGTCG ((((((((((.((((((((+)))))))).)))))))))) | 56.6 |
| CGACGTGCACTATGTGCTG+CAGCACATGTCGCACGTCG ((((((((...((((((((+))))))))...)))))))) | 46.4 |
| CGACGTGCACTATGTGCTG+CAGCACATGTTGCACGTCG (((((((((..((((((((+))))))))..))))))))) | 48.9 |
| CGACGTGCACTATGTGCTG+CAGCACATTAAGCACGTCG ((((((((...((((((((+))))))))...)))))))) | 44.3 |
| CGACGTGCACTATGTGCTG+CAGCACATTCAGCACGTCG ((((((((...((((((((+))))))))...)))))))) | 43.4 |
| CGACGTGCACTATGTGCTG+CAGCACATTCCGCACGTCG ((((((((...((((((((+))))))))...)))))))) | 42.2 |
